Laboratory results from the supplement of paper PMC10567573.

B1: STK38L (parent)
chain: FLPGGDMMTLLMKKDTLTEEETQF

Variants of: B1
Assay: protein stability index of a GFP-peptide fusion (GPS, HEK-293T) (PSI 1-6); higher = more stable
Details: c terminus: a fixed tail appended
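Also: lentivirally expressed fusions sorted by FACS into six bins by GFP to DsRed ratio, PSI derived from sequencing read proportions per bin multiplied by bin number.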

Question: With FLPGGDMMTLLMKKDTLTGEETQF [E19G] as the variant, how does the protein stability index read?
Answer: 2.35

Question: Which protein stability index does the source give for FLPGGDMMTLLMKKDTLTWEETQF [E19W] here?
Answer: 2.14

Question: For FLPGGDMMTLLMKKDTLTQEETQF [E19Q], which protein stability index is on record?
Answer: 2.12

Question: With FLPGGDMMTLLMKKDTLTREETQF [E19R] as the variant, how does the protein stability index read?
Answer: 1.78

Question: For FLPGGDMMTLLMKKDTLTCEETQF [E19C], which protein stability index is on record?
Answer: 1.73

Question: For FLPGGDMMTLLMKKDTLTDEETQF [E19D], which protein stability index is on record?
Answer: 2.42

Question: For FLPGGDMMTLLMKKDTLTKEETQF [E19K], which protein stability index is on record?
Answer: 1.97

Question: With FLPGGDMMTLLMKKDTLTYEETQF [E19Y] as the variant, how does the protein stability index read?
Answer: 1.9

Question: For FLPGGDMMTLLMKKDTLTNEETQF [E19N], which protein stability index is on record?
Answer: 1.72

Question: With FLPGGDMMTLLMKKDTLTIEETQF [E19I] as the variant, how does the protein stability index read?
Answer: 2.02

Question: Which protein stability index does the source give for FLPGGDMMTLLMKKDTLTPEETQF [E19P] here?
Answer: 2.11

Question: With FLPGGDMMTLLMKKDTLTSEETQF [E19S] as the variant, how does the protein stability index read?
Answer: 2.61

Question: With FLPGGDMMTLLMKKDTLTTEETQF [E19T] as the variant, how does the protein stability index read?
Answer: 1.51

Question: With FLPGGDMMTLLMKKDTLTLEETQF [E19L] as the variant, how does the protein stability index read?
Answer: 1.62

Question: For FLPGGDMMTLLMKKDTLTHEETQF [E19H], which protein stability index is on record?
Answer: 2.01

Question: With FLPGGDMMTLLMKKDTLTFEETQF [E19F] as the variant, how does the protein stability index read?
Answer: 1.87

Question: With FLPGGDMMTLLMKKDTLTMEETQF [E19M] as the variant, how does the protein stability index read?
Answer: 1.66

Question: Which protein stability index does the source give for FLPGGDMMTLLMKKDTLTAEETQF [E19A] here?
Answer: 2.13

Question: Which protein stability index does the source give for FLPGGDMMTLLMKKDTLWEEETQF [T18W] here?
Answer: 2.17

Question: Which protein stability index does the source give for FLPGGDMMTLLMKKDTLYEEETQF [T18Y] here?
Answer: 2.18

Question: For FLPGGDMMTLLMKKDTLAEEETQF [T18A], which protein stability index is on record?
Answer: 2.1

Question: Which protein stability index does the source give for FLPGGDMMTLLMKKDTLVEEETQF [T18V] here?
Answer: 2.49

Question: Which protein stability index does the source give for FLPGGDMMTLLMKKDTLLEEETQF [T18L] here?
Answer: 2.15

Question: For FLPGGDMMTLLMKKDTLSEEETQF [T18S], which protein stability index is on record?
Answer: 2.83

Question: With FLPGGDMMTLLMKKDTLEEEETQF [T18E] as the variant, how does the protein stability index read?
Answer: 2.36

Question: Which protein stability index does the source give for FLPGGDMMTLLMKKDTLKEEETQF [T18K] here?
Answer: 2

Question: Which protein stability index does the source give for FLPGGDMMTLLMKKDTLCEEETQF [T18C] here?
Answer: 1.57

Question: Which protein stability index does the source give for FLPGGDMMTLLMKKDTLFEEETQF [T18F] here?
Answer: 1.73

Question: For FLPGGDMMTLLMKKDTLMEEETQF [T18M], which protein stability index is on record?
Answer: 1.7

Question: For FLPGGDMMTLLMKKDTLIEEETQF [T18I], which protein stability index is on record?
Answer: 1.58

Question: With FLPGGDMMTLLMKKDTLPEEETQF [T18P] as the variant, how does the protein stability index read?
Answer: 2.68

Question: Which protein stability index does the source give for FLPGGDMMTLLMKKDTLQEEETQF [T18Q] here?
Answer: 2.34

Question: For FLPGGDMMTLLMKKDTLREEETQF [T18R], which protein stability index is on record?
Answer: 1.84

Question: With FLPGGDMMTLLMKKDTLHEEETQF [T18H] as the variant, how does the protein stability index read?
Answer: 2.05

Question: With FLPGGDMMTLLMKKDTLNEEETQF [T18N] as the variant, how does the protein stability index read?
Answer: 2.24

Question: Which protein stability index does the source give for FLPGGDMMTLLMKKDTLDEEETQF [T18D] here?
Answer: 2.29

Question: With FLPGGDMMTLLMKKDTLGEEETQF [T18G] as the variant, how does the protein stability index read?
Answer: 2.01

Question: With FLPGGDMMTLLMKKDTLTEEERQF [T22R] as the variant, how does the protein stability index read?
Answer: 2.37

Question: For FLPGGDMMTLLMKKDTLTEEEIQF [T22I], which protein stability index is on record?
Answer: 2.35

Question: Which protein stability index does the source give for FLPGGDMMTLLMKKDTLTEEEPQF [T22P] here?
Answer: 1.69

Question: With FLPGGDMMTLLMKKDTLTEEEDQF [T22D] as the variant, how does the protein stability index read?
Answer: 2.12

Question: Which protein stability index does the source give for FLPGGDMMTLLMKKDTLTEEEGQF [T22G] here?
Answer: 2.08

Question: For FLPGGDMMTLLMKKDTLTEEEHQF [T22H], which protein stability index is on record?
Answer: 2.06

Question: For FLPGGDMMTLLMKKDTLTEEEFQF [T22F], which protein stability index is on record?
Answer: 2.25

Question: For FLPGGDMMTLLMKKDTLTEEESQF [T22S], which protein stability index is on record?
Answer: 2.37

Question: For FLPGGDMMTLLMKKDTLTEEEKQF [T22K], which protein stability index is on record?
Answer: 2.18

Question: Which protein stability index does the source give for FLPGGDMMTLLMKKDTLTEEEYQF [T22Y] here?
Answer: 2.75

Question: For FLPGGDMMTLLMKKDTLTEEEMQF [T22M], which protein stability index is on record?
Answer: 1.97

Question: Which protein stability index does the source give for FLPGGDMMTLLMKKDTLTEEENQF [T22N] here?
Answer: 2.31

Question: For FLPGGDMMTLLMKKDTLTEEEQQF [T22Q], which protein stability index is on record?
Answer: 2.21

Question: For FLPGGDMMTLLMKKDTLTEEEEQF [T22E], which protein stability index is on record?
Answer: 3.21

Question: For FLPGGDMMTLLMKKDTLTEEEWQF [T22W], which protein stability index is on record?
Answer: 2.4

Question: Which protein stability index does the source give for FLPGGDMMTLLMKKDTLTEEEVQF [T22V] here?
Answer: 2.23

Question: With FLPGGDMMTLLMKKDTLTEEELQF [T22L] as the variant, how does the protein stability index read?
Answer: 2.12

Question: With FLPGGDMMTLLMKKDTLTEEEAQF [T22A] as the variant, how does the protein stability index read?
Answer: 2.53

Question: With FLPGGDMMTLLMKKDTLTEEECQF [T22C] as the variant, how does the protein stability index read?
Answer: 2.05

Question: With FLPGGDMMTLLMKKDTLTEECTQF [E21C] as the variant, how does the protein stability index read?
Answer: 2.01

Question: For FLPGGDMMTLLMKKDTLTEEVTQF [E21V], which protein stability index is on record?
Answer: 1.71

Question: For FLPGGDMMTLLMKKDTLTEEDTQF [E21D], which protein stability index is on record?
Answer: 2.07

Question: With FLPGGDMMTLLMKKDTLTEEKTQF [E21K] as the variant, how does the protein stability index read?
Answer: 2.16

Question: For FLPGGDMMTLLMKKDTLTEEATQF [E21A], which protein stability index is on record?
Answer: 1.94

Question: Which protein stability index does the source give for FLPGGDMMTLLMKKDTLTEERTQF [E21R] here?
Answer: 2.21

Question: For FLPGGDMMTLLMKKDTLTEETTQF [E21T], which protein stability index is on record?
Answer: 1.74

Question: For FLPGGDMMTLLMKKDTLTEEGTQF [E21G], which protein stability index is on record?
Answer: 2.89

Question: With FLPGGDMMTLLMKKDTLTEEWTQF [E21W] as the variant, how does the protein stability index read?
Answer: 2.14

Question: With FLPGGDMMTLLMKKDTLTEEPTQF [E21P] as the variant, how does the protein stability index read?
Answer: 1.65

Question: For FLPGGDMMTLLMKKDTLTEEHTQF [E21H], which protein stability index is on record?
Answer: 1.81

Question: For FLPGGDMMTLLMKKDTLTEEYTQF [E21Y], which protein stability index is on record?
Answer: 1.88

Question: With FLPGGDMMTLLMKKDTLTEESTQF [E21S] as the variant, how does the protein stability index read?
Answer: 2.19

Question: For FLPGGDMMTLLMKKDTLTEEFTQF [E21F], which protein stability index is on record?
Answer: 1.2

Question: With FLPGGDMMTLLMKKDTLTEENTQF [E21N] as the variant, how does the protein stability index read?
Answer: 1.84

Question: With FLPGGDMMTLLMKKDTLTEEQTQF [E21Q] as the variant, how does the protein stability index read?
Answer: 2.04

Question: For FLPGGDMMTLLMKKDTLTEELTQF [E21L], which protein stability index is on record?
Answer: 1.56

Question: With FLPGGDMMTLLMKKDTLTEEMTQF [E21M] as the variant, how does the protein stability index read?
Answer: 1.98

Question: Which protein stability index does the source give for FLPGGDMMTLLMKKDTLTEEITQF [E21I] here?
Answer: 2

Question: With FLPGGDMMTLLMKKDTLTEFETQF [E20F] as the variant, how does the protein stability index read?
Answer: 1.97

Question: For FLPGGDMMTLLMKKDTLTEAETQF [E20A], which protein stability index is on record?
Answer: 1.86

Question: With FLPGGDMMTLLMKKDTLTEIETQF [E20I] as the variant, how does the protein stability index read?
Answer: 1.4

Question: With FLPGGDMMTLLMKKDTLTELETQF [E20L] as the variant, how does the protein stability index read?
Answer: 1.13

Question: Which protein stability index does the source give for FLPGGDMMTLLMKKDTLTEGETQF [E20G] here?
Answer: 1.6

Question: Which protein stability index does the source give for FLPGGDMMTLLMKKDTLTEYETQF [E20Y] here?
Answer: 2.08

Question: For FLPGGDMMTLLMKKDTLTEQETQF [E20Q], which protein stability index is on record?
Answer: 1.76

Question: For FLPGGDMMTLLMKKDTLTESETQF [E20S], which protein stability index is on record?
Answer: 1.68

Question: For FLPGGDMMTLLMKKDTLTEDETQF [E20D], which protein stability index is on record?
Answer: 2.45

Question: With FLPGGDMMTLLMKKDTLTEHETQF [E20H] as the variant, how does the protein stability index read?
Answer: 1.97

Question: Which protein stability index does the source give for FLPGGDMMTLLMKKDTLTENETQF [E20N] here?
Answer: 2.5

Question: For FLPGGDMMTLLMKKDTLTEPETQF [E20P], which protein stability index is on record?
Answer: 1.82

Question: Which protein stability index does the source give for FLPGGDMMTLLMKKDTLTEWETQF [E20W] here?
Answer: 1.66

Question: Which protein stability index does the source give for FLPGGDMMTLLMKKDTLTEVETQF [E20V] here?
Answer: 1.79

Question: With FLPGGDMMTLLMKKDTLTEMETQF [E20M] as the variant, how does the protein stability index read?
Answer: 1.89

Question: With FLPGGDMMTLLMKKDTLTECETQF [E20C] as the variant, how does the protein stability index read?
Answer: 2.27

Question: For FLPGGDMMTLLMKKDTLTEKETQF [E20K], which protein stability index is on record?
Answer: 1.75

Question: For FLPGGDMMTLLMKKDTLTETETQF [E20T], which protein stability index is on record?
Answer: 1.86

Question: With FLPGGDMMTLLMKKDTLTERETQF [E20R] as the variant, how does the protein stability index read?
Answer: 1.95
